Data: patent publication US20260022186A1
Positions count from the first letter of the chain named.

B1: 1789 AM39 IgG (antibody, V domains shown)
VH: EVQLVESGGGLVQPGGSLRLSCAASGFNVSYSSIHWVRQAPGKGLEWVASIRGAGSDTRYADSVKGRFTISADTSKNTAYLQMNSLRAEDTAVYYCARNYWGWYPFYYFAFDYWGQGTLVTVSS
VL: DIQMTQSPSSLSASVGDRVTITCRASQSVSSAVAWYQQKPGKAPKLLIYSASSLYSGVPSRFSGSRSGTDFTLTISSLQPEDFATYYCQQGWDYPITFGQGTKVEIKR
B2: 1789 AM32 IgG (antibody, V domains shown)
VH: B1 VH with S50R, A54N, G55E, S56G, R59Y
VL: B1 VL
B3: 1789 AM42 IgG (antibody, V domains shown)
VH: B1 VH with S50K, A54G, G55H, S56Q, R59H
VL: B1 VL

target: T1, murine NT5E expressed on 4T1 cells (murine) (UniProt Q61503); assay: cell-based or functional assay
T1 sequence (looked up): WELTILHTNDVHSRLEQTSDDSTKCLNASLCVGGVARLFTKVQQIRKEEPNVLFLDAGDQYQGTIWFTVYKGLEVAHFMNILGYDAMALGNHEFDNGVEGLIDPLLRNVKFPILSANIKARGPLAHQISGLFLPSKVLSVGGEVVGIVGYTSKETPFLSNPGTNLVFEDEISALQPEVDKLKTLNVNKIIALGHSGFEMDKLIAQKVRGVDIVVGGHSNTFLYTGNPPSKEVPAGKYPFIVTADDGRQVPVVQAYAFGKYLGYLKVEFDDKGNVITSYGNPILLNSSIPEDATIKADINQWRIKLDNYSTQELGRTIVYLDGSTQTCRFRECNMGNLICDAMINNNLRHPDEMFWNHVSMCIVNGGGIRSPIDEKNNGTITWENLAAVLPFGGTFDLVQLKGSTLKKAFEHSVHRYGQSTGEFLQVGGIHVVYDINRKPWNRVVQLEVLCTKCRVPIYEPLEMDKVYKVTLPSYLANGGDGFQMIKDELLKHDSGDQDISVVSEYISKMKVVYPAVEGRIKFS

Row | Binder | IC50 of inhibition of NT5E activity on 4T1 cells, ATP [nM]
1 | B1 | 12.7
2 | B2 | 9.1
3 | B3 | 8.8

target: T2, human NT5E expressed on MDA-MB-231 cells (human) (UniProt P21589); assay: cell-based or functional assay
T2 sequence (looked up): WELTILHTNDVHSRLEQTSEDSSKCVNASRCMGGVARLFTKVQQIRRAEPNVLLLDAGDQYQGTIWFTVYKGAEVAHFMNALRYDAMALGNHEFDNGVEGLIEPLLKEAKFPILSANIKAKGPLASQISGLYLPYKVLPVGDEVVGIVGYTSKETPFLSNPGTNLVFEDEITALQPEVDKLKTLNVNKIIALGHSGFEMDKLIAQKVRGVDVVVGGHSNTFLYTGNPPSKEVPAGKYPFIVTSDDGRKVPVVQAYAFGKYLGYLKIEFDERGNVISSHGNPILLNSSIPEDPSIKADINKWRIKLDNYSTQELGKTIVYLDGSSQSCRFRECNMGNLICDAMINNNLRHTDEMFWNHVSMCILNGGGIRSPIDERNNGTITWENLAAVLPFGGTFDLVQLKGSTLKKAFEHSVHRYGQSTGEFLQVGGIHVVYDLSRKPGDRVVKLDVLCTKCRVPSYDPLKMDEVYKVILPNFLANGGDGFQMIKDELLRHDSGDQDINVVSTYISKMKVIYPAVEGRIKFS

Row | Binder | IC50 of inhibition of NT5E activity on MDA-MB-231 cells, ATP [nM] | IC50 of inhibition of NT5E activity on MDA-MB-231 cells, no ATP [nM]
4 | B1 | 2.5 | 6.9
5 | B2 | 2.3 | 5.6
6 | B3 | 1.9 | 5.4
